Assay [1] concerns the target T1, A1PI (Homo sapiens, UniProt P01009).
T1 construct: Human plasma is currently the only approved source of therapeutic AlPI
As to the kind of experiment: A1PI binding on peptide-resin column, injection of 1 mg A1PI in equilibration buffer. The following applies: for Percent AlPI Eluted by Fraction, 1M NaCl / Percent AlPI Eluted by Fraction, 2% Acetic Acid / Percent AlPI Eluted by Fraction, Flowthrough: sequence order, 1 mg AlPI; for Percent A1PI Eluted by Fraction Based on Absorbance at 280 nm, 1M NaCl / Percent A1PI Eluted by Fraction Based on Absorbance at 280 nm, 2% Acetic Acid / Percent A1PI Eluted by Fraction Based on Absorbance at 280 nm, Flowthrough / Percent A1PI Eluted by Fraction, 1M NaCl / Percent A1PI Eluted by Fraction, 2% Acetic Acid / Percent A1PI Eluted by Fraction, Flowthrough: 1 mg A1PI in equilibration buffer. On the procedure: (§1) Confirmatory binding assays were performed in a column chromatographic format on a microbore HPLC using individual peptide sequences synthesized directly onto the Toyopearl 650 M Chelate resin which had been modified with Totda followed by an alanine residue (A-Totda-Toyopearl), at a final substitution density of 0.1 mmole/g resin. The resin was packed into 0.4×5 cm columns (Thomson, Springfield, Va.) and tested on the Michrom HPLC system (Michrom BioResources, Auburn, Calif.). The elution program for all trials utilized the following method. The column was pre-equilibrated with equilibration buffer (as above). 1 ml of sample was injected and allowed sufficient time to flowthrough the column using equilibration buffer. The column was then washed with step elutions of 1M NaCl and 3M NaCl in equilibration buffer. The column was exposed to equilibration buffer with 0.1M NaCl. Any remaining protein was eluted with elution buffer (2% by volume glacial acetic acid in water).
(§2) A Gilson FC204 fraction collector at the HPLC outlet collected individual eluates for further analysis. Fractions collected from the 2% acetic acid eluates were neutralized with 2M Tris, pH 10.5 to bring the pH to neutrality. The protein samples were reconstituted in equilibration buffer unless otherwise stated. The samples were analyzed by the integration of the absorbance at 280 nm or by immunonephelometry. The specific method of determination is presented for each figure.
Tables 2 and 3 present the elution profiles for 19 sequences based on the injection of 1 mg AlPI in equilibration buffer at 4° C. and 20° C., respectively. The columns were run at a constant flow rate of865 μl/min (413 cm/hr) or 523 μl/min (250 cm/hr). No dependence of the elution profile with flow rate was found. The Percent AlPI Eluted by Fraction represents the amount eluted in the flowthrough, 1M NaCl wash, and 2% acetic acid fractions relative to the total AlPI eluted. The percentages are based on either the integration of the peak areas at […]

The target of assay [2] is T1, A1PI. As to the kind of experiment: Purification of A1PI from Effluent II+III on peptide column, A1PI mass balance. It counts as binding. The following applies: Table 13, 1 ml Eff. II+III, 4° C. On the procedure: Sequences 1-11 and 15 were assayed with Effluent II+III (Eff. II+III). Eff. II+III is a process intermediate in the Cohn plasma fractionation process. The feed stream contains 20% (by volume) ethanol, 20-25 mg/ml hSA and approximately 1 mg/ml AlPI. The stream also contains other proteins including anti-thrombin III (AT3), immunoglobin G (IgG), immunoglobin A (IgA), apolipoprotein alpha-1 (Apo A-1), transferrin (Trf), haptoglobin (Hpt), and alpha-1 acid glycoprotein (AAG) at concentrations ranging from 0.1-1 mg/ml.
The columns were assayed using the same technique as the hSA+AlPI experiments, allowing for a 10 minute residence time followed by a constant flow rate of 865 μl/min with step elutions of 1M NaCl, 3M NaCl, and 2% acetic acid. All experiments were conducted at 4° C. The mass balances for the injection of 1 ml Eff. […] The AlPI was enriched from 3% of the total protein in the feed to upwards of 50% in the acid eluate.

Assay [3] concerns the target T1, A1PI. As to the kind of experiment: A1PI purification from 5 mg hSA + 1 mg A1PI on peptide column, A1PI mass balance. It counts as binding. The conditions noted are these: A1PI, 5 mg hSA + 1 mg A1PI. As for the experimental part: as §1, §2
Columns were assayed with a mixture of 5 mg human serum albumin (hSA)+1 mg AlPI at 4° C. (Table 4, Seq. ID 1-11, 15, 17) and 20° C. (Table 5, Seq. ID 1-10, 13, 15, 17). The chromatography method was modified to provide for a 10 minute residence time of sample in the column by decreasing the flow to 17 μl/min (10 cm/hr) upon injection. Following the incubation, the flow was set at 865 μl/min (413 cm/hr) for the step elutions of 1M NaCl, 3M NaCl, and 2% acetic acid. The mass balances presented are based upon immunonephelometry. The Percent Eluted value is protein-specific and based on the amount of the protein eluted in a […]

The mark [4] stands for this setting: VIFLVR point mutations, 1 mg A1PI, 4° C.
The mark [5] stands for this setting: Table 19, 4° C., * Below detection limit.
[6] abbreviates: Table 19, 4° C., relative to total loaded.
Setting [7] is: Table 19, 20° C., * Below detection limit.
[8] abbreviates: Table 19, 20° C., relative to total loaded.
The mark [9] stands for this setting: 20° C., * Below detection limit.
Where [10] appears, read: 20° C., relative to total eluted.
The mark [11] stands for this setting: 4° C., relative to total eluted.

Ends that are not written are not given here.

T1 sequence (P01009 25-418): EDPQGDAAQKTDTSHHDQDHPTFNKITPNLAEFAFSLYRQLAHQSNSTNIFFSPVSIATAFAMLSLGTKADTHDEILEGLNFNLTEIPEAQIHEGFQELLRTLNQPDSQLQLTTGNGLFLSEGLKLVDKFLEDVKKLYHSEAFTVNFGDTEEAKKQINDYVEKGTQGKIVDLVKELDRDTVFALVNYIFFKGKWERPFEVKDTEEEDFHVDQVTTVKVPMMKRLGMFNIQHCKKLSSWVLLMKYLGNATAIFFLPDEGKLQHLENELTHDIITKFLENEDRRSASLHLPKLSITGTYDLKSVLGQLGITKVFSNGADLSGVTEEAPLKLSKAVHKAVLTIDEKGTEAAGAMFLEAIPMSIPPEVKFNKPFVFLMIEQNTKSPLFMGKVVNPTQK

Take “R I F L V R: point mutation of VIFLVR, position 1 (RIFLVR)”: in the assay with A1PI [1] (setting [4]), the “% of Total A1PI Eluted by Fraction (Based on Absorbance at 280 nm), 1M NaCl” value is on record as 0%; the “% of Total A1PI Eluted by Fraction (Based on Absorbance at 280 nm), 2% Acetic Acid” value is reported as 100%; the “% of Total A1PI Eluted by Fraction (Based on Absorbance at 280 nm), Flowthrough” value amounted to 0%. Further, in the assay with A1PI [2] (* Below detection limit), the “Mass A1PI per Eluate Fraction, 2% Acetic Acid” value was found to be 0.50 mg and the “Mass A1PI per Eluate Fraction, Flowthrough” value came to 0.24 mg. Moreover, in the assay with A1PI [2] (A1PI), the “Percent Eluted by Fraction, 1M NaCl” value is reported as 0%; the “Percent Eluted by Fraction, 2% Acetic Acid” value is recorded as 67%; the “Percent Eluted by Fraction, Flowthrough” value came out at 33%.
In the case of RVLFIV: reversed sequence of VIFLVR, the “binding of AlPI (in words)” value with A1PI [1] is “excellent binding”. Moreover, in the assay with A1PI [1] (4° C.), the “Percent AlPI Eluted by Fraction, 1M NaCl” value amounted to 27%; the “Percent AlPI Eluted by Fraction, 2% Acetic Acid” value was found to be 65%; the “Percent AlPI Eluted by Fraction, Flowthrough” value is reported as 8%. For the same substance, in the assay with A1PI [1] (20° C.), the “Percent AlPI Eluted by Fraction, 1M NaCl” value was 3%; the “Percent AlPI Eluted by Fraction, 2% Acetic Acid” value turned out to be 90%; the “Percent AlPI Eluted by Fraction, Flowthrough” value is listed as 7%. Further, in the assay with A1PI [3] (setting [5]), the “Mass Protein per Eluate Fraction, 1M NaCl” value came out at 0.11 mg; the “Mass Protein per Eluate Fraction, 2% Acetic Acid” value stood at 0.25 mg; the “Mass Protein per Eluate Fraction, Flow” value is on record as 0.48 mg. Further, in the assay with A1PI [3] (setting [6]), the “Percent Eluted by Fraction, 1M NaCl” value is 13%; the “Percent Eluted by Fraction, 2% Acetic Acid” value is 30%; the “Percent Eluted by Fraction, 3M NaCl” value stood at 0%; the “Percent Eluted by Fraction, Flow” value is recorded as 57%. Besides, in the assay with A1PI [3] (setting [7]), the “Mass Protein per Eluate Fraction, 1M NaCl” value was 0.04 mg; the “Mass Protein per Eluate Fraction, 2% Acetic Acid” value stood at 0.54 mg; the “Mass Protein per Eluate Fraction, Flow” value turned out to be 0.22 mg. For the same substance, in the assay with A1PI [3] (setting [8]), the “Percent Eluted by Fraction, 1M NaCl” value worked out at 5%; the “Percent Eluted by Fraction, 2% Acetic Acid” value stood at 68%; the “Percent Eluted by Fraction, 3M NaCl” value was found to be 0%; the “Percent Eluted by Fraction, Flow” value was 28%.
Take WIKWTK: in the assay with A1PI [1] (4° C.), the “Percent A1PI Eluted by Fraction Based on Absorbance at 280 nm, 1M NaCl” value is 100%; the “Percent A1PI Eluted by Fraction Based on Absorbance at 280 nm, 2% Acetic Acid” value came to 0%; the “Percent A1PI Eluted by Fraction Based on Absorbance at 280 nm, Flowthrough” value was determined as 0%. In the assay with A1PI [1] (20° C.), the “Percent A1PI Eluted by Fraction, 1M NaCl” value is 91%; the “Percent A1PI Eluted by Fraction, 2% Acetic Acid” value was determined as 2%; the “Percent A1PI Eluted by Fraction, Flowthrough” value worked out at 7%. For the same substance, in the assay with A1PI [3] (setting [9]), the “Mass Protein per Eluate Fraction, 1M NaCl” value was determined as 0.80 mg and the “Mass Protein per Eluate Fraction, Flow” value worked out at 0.02 mg. Moreover, in the assay with A1PI [3] (setting [10]), the “Percent Eluted by Fraction, 1M NaCl” value is 97%; the “Percent Eluted by Fraction, 2% Ac. Acid” value is given as 0%; the “Percent Eluted by Fraction, 3M NaCl” value turned out to be 0%; the “Percent Eluted by Fraction, Flow” value is 3%.
With WKLWRW, in the assay with A1PI [1] (4° C.), the “Percent A1PI Eluted by Fraction Based on Absorbance at 280 nm, 1M NaCl” value is on record as 80%; the “Percent A1PI Eluted by Fraction Based on Absorbance at 280 nm, 2% Acetic Acid” value turned out to be 20%; the “Percent A1PI Eluted by Fraction Based on Absorbance at 280 nm, Flowthrough” value was determined as 0%. In the assay with A1PI [1] (20° C.), the “Percent A1PI Eluted by Fraction, 1M NaCl” value worked out at 67%; the “Percent A1PI Eluted by Fraction, 2% Acetic Acid” value was found to be 33%; the “Percent A1PI Eluted by Fraction, Flowthrough” value came out at 0%. Moreover, in the assay with A1PI [3] (4° C., * Below detection limit), the “Mass Protein per Eluate Fraction, 1M NaCl” value was determined as 0.44 mg; the “Mass Protein per Eluate Fraction, 2% Ac. Acid” value came out at 0.06 mg; the “Mass Protein per Eluate Fraction, Flow” value worked out at 0.17 mg. Moreover, in the assay with A1PI [3] (setting [11]), the “Percent Eluted by Fraction, 1M NaCl” value turned out to be 66%; the “Percent Eluted by Fraction, 2% Ac. Acid” value is recorded as 9%; the “Percent Eluted by Fraction, Flow” value came out at 25%. Also, in the assay with A1PI [3] (setting [9]), the “Mass Protein per Eluate Fraction, 1M NaCl” value came to 0.15 mg; the “Mass Protein per Eluate Fraction, 2% Ac. Acid” value stood at 0.40 mg; the “Mass Protein per Eluate Fraction, 3M NaCl” value amounted to 0.05 mg; the “Mass Protein per Eluate Fraction, Flow” value is given as 0.16 mg. Also, in the assay with A1PI [3] (setting [10]), the “Percent Eluted by Fraction, 1M NaCl” value is given as 20%; the “Percent Eluted by Fraction, 2% Ac. Acid” value is 52%; the “Percent Eluted by Fraction, 3M NaCl” value was 7%; the “Percent Eluted by Fraction, Flow” value is listed as 21%.

Values taken from patent US5985836A, “Alpha-1 proteinase inhibitor binding peptides” (Bayer Corporation, priority 1998, dated 1999).
